Experimental data published in US20200199244A1 (published 2020).
“And” between values parts separate entries of the source, which are not always exact repeats. Equal values may be shown once.

Experiments:
[1] = target: T1, human CD40 (BMS, CY24FEB06-01) (human, UniProt P25942 21-193); experiment: ELISA RBA, competition with IZ-CD40L for soluble human CD40;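 further: Neutravidin-coated 384-well plates, dAb–human CD40 complex incubated 2 h at room temperature, read-out as absorbance at 450 nm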
T1 construct: Soluble human CD40 reagent of the ELISA RBA
Protocol: Clear walled High Bind, 384-well plates (Corning, UK) were coated with 25 μl of 1 μg/ml Neutravidin in 0.2 M carbonate-bicarbonate buffer, pH 9.4 overnight at 4° C. The following day, assay plates were washed with 0.1% (v/v) Tween PBS buffer, blocked with 1% (w/v) BSA in PBS for 1 hour at room temperature and washed again. […] Following washing of the assay plate, the dAb:human CD40 complex was incubated in the assay plate at room temperature for 2 hours with gentle agitation. […] Absorbance signal was measured using a SpectraMax® M5e plate reader (Molecular Devices) at 450 nm following neutralization with 1M HCl solution.

human CD40 = human CD40 (human, UniProt P25942 21-277); experiment: cell-based or functional assay
Sequence of human CD40 (P25942 21-277 limits assumed): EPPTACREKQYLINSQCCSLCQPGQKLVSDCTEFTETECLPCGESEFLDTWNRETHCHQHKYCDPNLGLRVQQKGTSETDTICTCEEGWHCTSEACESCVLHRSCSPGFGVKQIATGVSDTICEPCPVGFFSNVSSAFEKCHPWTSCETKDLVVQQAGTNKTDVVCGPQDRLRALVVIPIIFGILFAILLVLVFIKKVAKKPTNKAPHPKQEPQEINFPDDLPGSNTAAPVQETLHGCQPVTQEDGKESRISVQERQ

T1 sequence (P25942 21-193 limits assumed): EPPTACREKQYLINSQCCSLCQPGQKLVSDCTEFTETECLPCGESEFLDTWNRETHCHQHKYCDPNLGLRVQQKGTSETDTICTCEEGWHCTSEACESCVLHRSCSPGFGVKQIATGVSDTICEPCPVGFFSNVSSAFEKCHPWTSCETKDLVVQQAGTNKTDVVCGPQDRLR

Binder | EC50 [1] | other results
BMS3h-56-246 (other, domain antibody (dAb): single human VH domain) VH: EVQLLESGGGLVQPGGSLRLSCAASGFTFRDYEMWWVRQAPGKGLERVSAINPWGTLTYYADSVKGRFTISRDNSKNTLYLQMNSLRAEDTAVYYCAKLPFTFEDWGQGTLVTVSS | 11.1 nM | –
BMS3h-56-224 (other, domain antibody (dAb): single human VH domain) VH: EVQLLESGGGLVQPGGSLRLSCAASGFTFRDYEMWWVRQAPGKGLERVSAINPWGQLTYYADSVKGRFTISRDNSKNTLYLQMNSLRAEDTAVYYCAKLPFTFEDWGQGTLVTVSS | 2.1 nM and 4.2 nM | –
BMS3h-56-225 (other, domain antibody (dAb): single human VH domain) VH: EVQLLESGGGLVQPGGSLRLSCAASGFTFRDYEMWWVRQAPGKGLERVSAINPWGGYTYYADSVKGRFTISRDNSKNTLYLQMNSLRAEDTAVYYCAKLPFTFDDWGQGTLVTVSS | 2.9 nM | –
BMS3h-56-204 (other, domain antibody (dAb): single human VH domain) VH: EVQLLESGGGLVQPGGSLRLSCAASGFTFRDYEMWWVRQAPGKGLERVSAINPQGTRTYYADSVKGRFTISRDNSKNTLYLQMNSLRAEDTAVYYCAKLPTYFKDWGQGTLVTVSS | 4.5 nM | –
BMS3h-56-229 (other, domain antibody (dAb): single human VH domain) VH: EVQLLESGGGLVQPGGSLRLSCAASGFTFRDYEMWWVRQAPGKGLERVSAINPYGSLTYYADSVKGRFTISRDNSKNTLYLQMNSLRAEDTAVYYCAKLPFTFDDWGQGTLVTVSS | 4.1 nM | –
BMS3h-56-205 (other, domain antibody (dAb): single human VH domain) VH: EVQLLESGGGLVQPGGSLRLSCAASGFTFRDYEMWWVRQAPGKGLERVSAINPQGTRTYYADSVKGRFTISRDNSKNTLYLQMNSLRAEDTAVYYCAKLPFYFSEWGQGTLVTVSS | 9 nM | –
BMS3h-56-253 (other, domain antibody (dAb): single human VH domain) VH: EVQLLESGGGLVQPGGSLRLSCAASGFTFRDYEMWWVRQAPGKGLERVSAINPAGGYTYYADSVKGRFTISRDNSKNTLYLQMNSLRAEDTAVYHCAKLPFTFEDWGQGTLVTVSS | 1.3 nM | –
BMS3h-56-223 (other, domain antibody (dAb): single human VH domain) VH: EVQLLESGGGLVQPGGSLRLSCAASGFTFRDYEMWWVRQAPGRGLERVSAINPPGMLTYYADSVKGRFTISRDNSKNTLYLQMNSLRAEDTAVYYCAKLPFTFDDWGQGTLVTVSS | 5 nM | –
BMS3h-56-207 (other, domain antibody (dAb): single human VH domain) VH: EVQLLESGGGLVQPGGSLRLSCAASGFTFRDYEMWWVRQAPGKGLERVSAINPQGTRTYYADSVKGRFTISRDNSKNTLYLQMNSLRAEDTAVYYCAKLPFPFSEWGQGTLVTVSS | 7.3 nM | –
BMS3h-56-244 (other, domain antibody (dAb): single human VH domain) VH: EVQLLESGGGLVQPGGSLRLSCAASGFTFRDYEMWWVRQAPGKGLERVSAINPWGGLTYYADSVKGRFTISRDNSKNTLYLQMNSLRAEDTAVYYCAKLPFTFDDWGQGTLVTVSS | 6 nM | –
BMS3h-56-243 (other, domain antibody (dAb): single human VH domain) VH: EVQLLESGGGLVQPGGSLRLSCAASGFTFRDYEMWWVRQAPGKGLERVSAINPWGGFTYYADSVKGRFTISRDNSKNTLYLQMNSLRAEDTAVYYCAKLPFTFEDWGQGTLVTVSS | 9.9 nM | –
BMS3h-56-220 (other, domain antibody (dAb): single human VH domain) VH: EVQLLESGGGLVQPGGSLRLSCAASGFTFRDYEMWWVRQAPGKGLERVSAINPYGGLTYYADSVKGRFTISRDNSKNTLYLQMNSLRAEDTAVYYCAKLPFTFDDWGQGTLVTVSS | 4.2 nM | –
BMS3h-56-239 (other, domain antibody (dAb): single human VH domain) VH: EVQLLESGGGLVQPGGSLRLSCAASGFTFRDYEMWWVRQAPGKGLERVSAINPWGSLTYYADSVKGRFTISRDNSKNTLYLQMNSLRAEDTAVYYCAKLPFTFDDWGQGTLVTVSS | 2.7 nM | –
BMS3h-56-232 (other, domain antibody (dAb): single human VH domain) VH: EVQLLESGGGLVQPGGSLRLSCAASGFTFRDYEMWWVRQAPGKGLERVSAINPWGSHTYYADSVKGRFTISRDNSKNTLYLQMNSLRAEDTAVYYCAKLPFTFDDWGQGTLVTVSS | 2.8 nM and 3.7 nM | –
BMS3h-56-248 (other, domain antibody (dAb): single human VH domain) VH: EVQLLESGGGLVQPGGSLRLSCAASGFTFRDYEMWWVRQAPGKGLERVSAINPYGNLTYYADSVKGRFTISRDNSKNTLYLQMNSLRAEDTAVYYCAKLPFTFDDWGQGTLVTVSS | 0.7 nM | –
BMS3h-37-205 (other, domain antibody (dAb): single human VH domain) VH: EVQLLESGGGLVQPGGSLRLSCAASGFTFEWYEMQWVRRAPGKGLEWVSAISGDGYRTYYADSVKGRFTISRDNSKNTLYLQMNSLRAEDTAVYYCAKELEYFDYWGRGTLVTVSS | 3.1 nM and 4.4 nM | –

Binder | EC50 [1] | other results
BMS3h-37-212 (other, domain antibody (dAb): single human VH domain) VH: EVQLLESGGGLVRPGGSLRLSCAASGFTFEWYEMQWVRRAPGKGLEWVSAISGDGYRTYYADSVKGRFTISRDNSKNTLYLQMNSLRAEDTAVYYCAKELEFFDYWGRGTLVTVSS | 24 nM | –
BMS3h-37-213 (other, domain antibody (dAb): single human VH domain) VH: EVQLLESGGGLVQPGGSLRLSCAASGFTFEWYEMQWVRRAPGKGLEWVSAISGDGYRTYYADSVKGRFTISRDNSKNTLYLQMNSLRAEDTAVYYCAKELLFFDYRGRGTLVTVSS | 16 nM | –
BMS3h-37-206 (other, domain antibody (dAb): single human VH domain) VH: EVQLLESGGGLVQPGGSLRLSCAASGFTFEWYEMQWVRRAPGKGLEWVSAISGDGYRTYYADSVKGRFTISRDNSKNTLYLQMNSLRAEDTAVYYCAKGLEYFDYWGRGTLVTVSS | 3.2 nM and 8.9 nM | –
BMS3h-37-207 (other, domain antibody (dAb): single human VH domain) VH: EVQLLESGGGLVQPGGSLRLSCAASGFTFEWYEMQWVRRAPGKGLEWVSAISGDGYRTYYADSVKGRFTISRDNSKNTLYLQMNSLRAEDTAVYYCAKELAFFDYWGRGTLVTVSS | 2.5 nM and 6.6 nM | –
BMS3h-38-201 (other) VH: EVQLLASGGGLVQPGGSLRLSCAASGFTFEEEEMIWVRQAPGKGLEWVSAISGSGGSTYYADSVKGRFTISRDNSKNTLYLQMNSLRAEDTAVYYCGKEPFYYDYWGQGTLVTVSS | – | CHO-hCD40L-driven DC Activation IL-12 EC50 (human CD40): > 800 nM; CHO-hCD40L-driven Human B Cell Proliferation EC50 (human CD40): > 7000 nM; hIZCD40L-driven Human B Cell Proliferation EC50 (human CD40): > 70 nM
BMS3h-38-217 (other) VH: EVQLLASGGGLVQPGGSLRLSCAASGFTFEEEEMIWVRQAPGKGLEWVSAISRRGYSTYYADSVKGRFTISRDNSKNTLYLQMNSLRAEDTAVYYCGKEPFRYDYWGQGTLVTVSS | – | CHO-hCD40L-driven DC Activation IL-12 EC50 (human CD40): 1.7 nM; CHO-hCD40L-driven Human B Cell Proliferation EC50 (human CD40): 34 nM; T-B cell MLR EC50 (human CD40): 74 nM; hIZCD40L-driven Human B Cell Proliferation EC50 (human CD40): 0.8 nM
BMS3h-38-228 (other) VH: EVQLLASGGGLVQPGGSLRLSCAASGFTFEEEEMIWVRQAPGKGLEWVSAISRNGFSTYYADSVKGRFTISRDNSKNTLYLQMNSLRAEDTAVYYCGKEPFRYDYWGQGTLVTVSS | – | hIZCD40L-driven Human B Cell Proliferation EC50 (human CD40): 0.7 nM
BMS3h-38-215 (other) VH: EVQLLASGGGLVQPGGSLRLSCAASGFTFEEEEMIWVRQAPGKGLEWVSAISGLGWSTYYADSVKGRFTISRDNSKNTLYLQMNSLRAEDTAVYYCGKEPFRYDYWGQGTLVTVSS | – | CHO-hCD40L-driven DC Activation IL-12 EC50 (human CD40): 6 nM; CHO-hCD40L-driven Human B Cell Proliferation EC50 (human CD40): 65 nM; T-B cell MLR EC50 (human CD40): 163 nM; hIZCD40L-driven Human B Cell Proliferation EC50 (human CD40): 1 nM
BMS3h-38-219 (other) VH: EVQLLASGGGLVQPGGSLRLSCAASGFTFEEEEMIWVRQAPGKGLEWVSSISRSGGSTYYADSVKGRFTISRDNSKNTLYLQMNSLRAEDTAVYYCGKEPFRYDYWGQGTLVTVSS | – | CHO-hCD40L-driven DC Activation IL-12 EC50 (human CD40): 9 nM; CHO-hCD40L-driven Human B Cell Proliferation EC50 (human CD40): 93 nM; T-B cell MLR EC50 (human CD40): 164 nM; hIZCD40L-driven Human B Cell Proliferation EC50 (human CD40): 2 nM
BMS3h-38-238 (other, domain antibody (dAb): single human VH domain) VH: EVQLLASGGGLVQPGGSLRLSCAASGFTFEEEEMIWVRQAPGKGLEWVSAISRSGYSTYYADSVKGRFTISRDNSKNTLYLQMNSLRAEDTAVYYCGKEPFRYDYWGQGTLVTVSS | 5.1 nM | –
BMS3h-38-231 (other) VH: EVQLLASGGGLVQPGGSLRLSCAASGFPFEEEEMIWVRQAPGKGLEWVSAISRQGWSTYYADSVKGRFTISRDNSKNTLYLQMNSLRAEDTAVYYCGKEPFRYDYWGQGTLVTVSS | – | hIZCD40L-driven Human B Cell Proliferation EC50 (human CD40): 0.66 nM
BMS3h-38-211 (other) VH: EVQLLASGGGLVQPGGSLRLSCAASGFTFEEEEMIWVRQAPGKGLEWVSAISRQGGSTYYADSVKGRFTISRDNSKNTLYLQMNSLRAEDTAVYYCGKEPFRYDYWGQGTLVTVSS | – | CHO-hCD40L-driven DC Activation IL-12 EC50 (human CD40): 18 nM; CHO-hCD40L-driven Human B Cell Proliferation EC50 (human CD40): 82 nM; T-B cell MLR EC50 (human CD40): 200 nM; hIZCD40L-driven Human B Cell Proliferation EC50 (human CD40): 2 nM
BMS3h-38-205 (other) VH: EVQLLASGGGLVQPGGSLRLSCAASGFTFFAAEMIWVRQAPGKGLEWVSAISGSGGSTYYADSVKGRFTISRDNSKNTLYLQMNSLRAEDTAVYYCGKEPFRYDYWGQGTLVTVSS | – | CHO-hCD40L-driven DC Activation IL-12 EC50 (human CD40): 29 nM; CHO-hCD40L-driven Human B Cell Proliferation EC50 (human CD40): 1100 nM; hIZCD40L-driven Human B Cell Proliferation EC50 (human CD40): 4 nM
BMS3h-38-202 (other, domain antibody (dAb): single human VH domain) VH: EVQLLASGGGLVQPGGSLRLSCAASGFTFEEEEMIWVRQAPGKGLEWVSAISGSGGSTYYADSVKGRFTISRDNSKNTLYLQMNSLRAEDTAVYYCGKEPFYFDYWGQGTLVTVSS | 4.8 nM | –
BMS3h-38-203 (other, domain antibody (dAb): single human VH domain) VH: EVQLLASGGGLVQPGGSLRLSCAASGFTFEEKEMIWVRQAPGKGLEWVSAISGSGGSTYYADSVKGRFTISRDNSKNTLYLQMNSLRAEDTAVYYCGKEPFFYDYWGQGTLVTVSS | 5.5 nM | –
BMS3h-38-201 (other, domain antibody (dAb): single human VH domain) VH: EVQLLASGGGLVQPGGSLRLSCAASGFTFEEEEMIWVRQAPGKGLEWVSAISGSGGSTYYADSVKGRFTISRDNSKNTLYLQMNSLRAEDTAVYYCGKEPFYYDYWGQGTLVTVSS | 3.4 nM | –
